Source: patent US9322000B2, “Methanol dehydrogenase enzymes from Bacillus” (Sinvent AS, priority 2012, dated 2016)

Tests used:
[1] = test system: 13C-methanol; assay: 13C-methanol labeling of genetically engineered B. subtilis; assay type: cell-based; details: B. subtilis 168 expressing Act, Mdh3, HxlA
Method: For the labeling experiments we used the B. subtilis strain that expresses Act, Mdh3, HxlA and HxlB and the strain that expresses Act, Mdh3, HxlA, HxlB, GlpX, Fba, Tkt, Pfk and Rpe. As a negative control the B. subtilis strain with the empty pHCMC04 plasmid was used. All B. subtilis strains were grown on M9 medium containing (per liter) 3.48 g Na2HPO4.12H20, 0.60 g of KH2PO4, 0.51 g of NaCl, 2.04 g of NH4Cl, 0.10 g of MgSO4, 4.38 mg of CaCl2, 15 mg of Na2EDTA.2H2O, 4.5 mg of ZnSO4.7H2O, 0.3 mg of CoCl2.6 H2O, 1 mg of MnCl2.4H2O, 1 mg of H3BO3, 0.4 mg of Na2MoO4.2H2O, 3 mg of FeSO4.7H2O and 0.3 mg of CuSO4.5H2O, 10 g of xylose (i.e. inducer) and 5 mg of chloramphenicol. All the cultivations were performed at 37° C. Cells strains were plated from a glycerol stock on a LB agar plate (10 g/l of tryptone, 5 g/l of yeast extract, 10 g/l of NaCl, and 16 g/l agar) containing 5 μg/ml of chloramphenicol and grown afterwards on a LB+chloramphenicol liquid medium for approximately 5 hours. The liquid pre-cultures containing M9 medium were inoculated from the LB cultures at a final OD600 between 1.4 and 1.8. […] The labeling patterns of intracellular metabolites were measured using a Dionex ICS 2000 system (Dionex, Sunnyvale, USA) coupled to a triple quadrupole QTrap 4000 mass spectrometer (Applied Biosystems, Foster City, USA).

[2] = test system: 13C-methanol; assay: 13C-methanol labeling of genetically engineered C. glutamicum; assay type: cell-based; details: C. glutamicum delta ald expressing Mdh2, Hps and Phi; 40 mM 13C-methanol; 30 and 90 minutes
Method: For the labeling experiments we used the C. glutamicum delta ald strain that expresses Mdh2-MGA3 (pVWEx1-Mdh2), Hps and Phi (pEKEX3−Hps+Phi). As a negative control the C. glutamicum delta ald strain with the empty pEKEX3 plasmid was used. All C. glutamicum strains were grown on M9 medium containing (per liter) 3.48 g Na2HPO4.12 H2O, 0.60 g of KH2PO4, 0.51 g of NaCl, 2.04 g of NH4Cl, 0.10 g of MgSO4, 4.38 mg of CaCl2, 15 mg of Na2EDTA.2H2O, 4.5 mg of ZnSO4.7 H2O, 0.3 mg of CoCl2.6 H2O, 1 mg of MnCl2.4H2O, 1 mg of H3BO3, 0.4 mg of Na2MoO4.2H2O, 3 mg of FeSO4.7H2O and 0.3 mg of CuSO4.5H2O. For all the cultivation (M9 or LB), 1 mM of IPTG was used as inducer and 100 μg/ml of spectinomycin and 25 μg/ml of kanamycin were added in the medium as resistant markers. All the cultivations were performed at 30° C. Cell strains were plated from a glycerol stock on a LB agar plate (10 g/l of tryptone, 5 g/l of yeast extract, 10 g/l of NaCl, and 16 g/l agar) and grown afterwards on a LB liquid medium for 6 hours. The liquid pre-cultures containing M9 medium plus 3 g/l ribose were inoculated from the LB cultures at a final OD600 of 0.6 for 12 hours. […] The labeling patterns of intracellular metabolites were measured using a Dionex ICS 2000 system (Dionex, Sunnyvale, USA) coupled to a triple quadrupole QTrap 4000 mass spectrometer (Applied Biosystems, Foster City, USA).

[3] = Alcohol dehydrogenase assay of purified MDH proteins with ethanol as substrate; assay type: biochemical
Method: Alcohol dehydrogenase activities were measured spectrophotometrically essentially as described previously (Hektor, Kloosterman et al. (2002) Chem 277(49): 46966-46973) and the reaction mixture contained: 100 mM Glycine-KOH pH 9.5 (unless otherwise stated), 5 mM MgSO4, 0.5 mM NAD^+ and 500 mM alcohol (methanol, ethanol, propanol, 1,3-propanediol, or butanol). NAD^+ was substituted with equal concentrations of NADP^+, FMN^+, and FAD^+, when indicated. The reaction mixture for measurements of formaldehyde reductase activity contained: 50 mM Potassium-phosphate buffer pH=6.7, 0.15 mM NADH, 1 mM DTT and 11.6 mM (0.1-116 mM) formaldehyde. The assay components were mixed in the cuvette and pre-warmed to 45° C., unless otherwise stated. The reactions were started by addition of 5-40 μg of the purified MDH proteins, and the production of NADH was monitored at 340 nm for 4 minutes. One unit of MDH activity was defined as the amount of enzyme needed to produce 1 μmol NADH per minute under the conditions described above. Purified Act (0.1-40 μg) or NudF (20 μg) proteins were added to the reaction mixtures as indicated in the text.
In order to establish reliable assay conditions for comparative biochemical characterizations, the six MDH proteins were analysed for pH and temperature optima. […]

B1: Mdh3-MGA3: NAD-dependent methanol dehydrogenase encoded by chromosomal gene mdh3 of B. methanolicus MGA3, SEQ ID NO. 4 (protein)
chain: MKNTQSAFYMPSVNLFGAGSVNEVGTRLAGLGVKKALLVTDAGLHSLGLSEKIAGIIREAGVEVAIFPKAEPNPTDKNVAEGLEAYNAENCDSIVTLGGGSSHDAGKAIALVAANGGTIHDYEGVDVSKKPMVPLIAINTTAGTGSELTKFTIITDTERKVKMAIVDKHVTPTLSINDPELMVGMPPSLTAATGLDALTHAIEAYVSTGATPITDALAIQAIKIISKYLPRAVANGKDIEAREQMAFAQSLAGMAFNNAGLGYVHAIAHQLGGFYNFPHGVCNAILLPHVCRFNLISKVERYAEIAAFLGENVDGLSTYEAAEKAIKAIERMARDLNIPKGFKELGAKEEDIETLAKNAMNDACALTNPRKPKLEEVIQIIKNAM
modifications: Bacillus methanolicus MGA3
[1]; HxlB plus overexpressed PPP genes
  13C labeling of metabolites (mass isotopomer fraction M1): significant labeling incorporation was detected
[1]; HxlB, no PPP genes overexpressed
  13C labeling of metabolites (mass isotopomer fraction M1): no labeling was found

B2: Mdh2-MGA3: NAD-dependent methanol dehydrogenase encoded by chromosomal gene mdh2 of B. methanolicus MGA3, SEQ ID NO. 2 (protein)
chain: MTNTQSAFFMPSVNLFGAGSVNEVGTRLADLGVKKALLVTDAGLHGLGLSEKISSIIRAAGVEVSIFPKAEPNPTDKNVAEGLEAYNAENCDSIVTLGGGSSHDAGKAIALVAANGGKIHDYEGVDVSKEPMVPLIAINTTAGTGSELTKFTIITDTERKVKMAIVDKHVTPTLSINDPELMVGMPPSLTAATGLDALTHAIEAYVSTGATPITDALAIQAIKIISKYLPRAVANGKDIEAREQMAFAQSLAGMAFNNAGLGYVHAIAHQLGGFYNFPHGVCNAVLLPYVCRFNLISKVERYAEIAAFLGENVDGLSTYDAAEKAIKAIERMAKDLNIPKGFKELGAKEEDIETLAKNAMKDACALTNPRKPKLEEVIQIIKNAM
modifications: Bacillus methanolicus MGA3
[2]
  13C label incorporation into metabolites (mass isotopomer fraction M1): Significant label incorporation into metabolites was observed

B3: Mdh-MGA3: previously reported plasmid pBM19-encoded NAD-dependent methanol dehydrogenase of B. methanolicus MGA3, SEQ ID NO. 8 (protein)
chain: MTTNFFIPPASVIGRGAVKEVGTRLKQIGAKKALIVTDAFLHSTGLSEEVAKNIREAGVDVAIFPKAQPDPADTQVHEGVDVFKQENCDSLVSIGGGSSHDTAKAIGLVAANGGRINDYQGVNSVEKPVVPVVAITTTAGTGSETTSLAVITDSARKVKMPVIDEKITPTVAIVDPELMVKKPAGLTIATGMDALSHAIEAYVAKGATPVTDAFAIQAMKLINEYLPKAVANGEDIEAREKMAYAQYMAGVAFNNGGLGLVHSISHQVGGVYKLQHGICNSVNMPHVCAFNLIAKTERFAHIAELLGENVAGLSTAAAAERAIVALERINKSFGIPSGYAEMGVKEEDIELLAKNAYEDVCTQSNPRVPTVQDIAQIIKNAM
modifications: Bacillus methanolicus MGA3
[3]; B. subtilis NudF added
  stimulation of Mdh activity with NudF: about 8 fold
[3]; MDH and Act 1:1
  increase of catalytic activity in the presence of Act: about 8 fold
